Test results from patent US20260201008A1, “SECRETIN-DERIVED GLP1R SELECTIVE AGONISTS” (GUBRA A/S, priority 2023, published 2026).
Numbered stars: 1 amine (or outer) side, 2 acyl side, 3 side chain; on linkers, the order of the positions; unused ones are H or OH. Square brackets hold non-standard residues; d marks the D form. Side chains are listed from the residue outwards. Ends that are not written are not given here. * marks the point of attachment. C20 diacid = O=C(O)CCCCCCCCCCCCCCCCCCC(=O)*; γGlu = O=C(O)[C@H](CCC(=O)[*:2])N[*:1]; AEEA = NCCOCCOCC(=O)O; Aib = CC(C)(N)C(=O)O

B1: SEQ ID NO: 201 (peptide)
peptide: H[Aib]EGTFTSDYSYLLEGAALQRFIQWLV-NH2
modifications: N-terminus assumed
SMILES: CC[C@H](C)[C@H](NC(=O)[C@H](Cc1ccccc1)NC(=O)[C@H](CCCNC(=N)N)NC(=O)[C@H](CCC(N)=O)NC(=O)[C@H](CC(C)C)NC(=O)[C@H](C)NC(=O)[C@H](C)NC(=O)CNC(=O)[C@H](CCC(=O)O)NC(=O)[C@H](CC(C)C)NC(=O)[C@H](CC(C)C)NC(=O)[C@H](Cc1ccc(O)cc1)NC(=O)[C@H](CO)NC(=O)[C@H](Cc1ccc(O)cc1)NC(=O)[C@H](CC(=O)O)NC(=O)[C@H](CO)NC(=O)[C@@H](NC(=O)[C@H](Cc1ccccc1)NC(=O)[C@@H](NC(=O)CNC(=O)[C@H](CCC(=O)O)NC(=O)C(C)(C)NC(=O)[C@@H](N)Cc1c[nH]cn1)[C@@H](C)O)[C@@H](C)O)C(=O)N[C@@H](CCC(N)=O)C(=O)N[C@@H](Cc1c[nH]c2ccccc12)C(=O)N[C@@H](CC(C)C)C(=O)N[C@H](C(N)=O)C(C)C
B2: SEQ ID NO: 202 (peptide)
peptide: H[Aib]EGTFTSDYSFLLEGAALQRFIQWLV-NH2
modifications: N-terminus assumed
SMILES: CC[C@H](C)[C@H](NC(=O)[C@H](Cc1ccccc1)NC(=O)[C@H](CCCNC(=N)N)NC(=O)[C@H](CCC(N)=O)NC(=O)[C@H](CC(C)C)NC(=O)[C@H](C)NC(=O)[C@H](C)NC(=O)CNC(=O)[C@H](CCC(=O)O)NC(=O)[C@H](CC(C)C)NC(=O)[C@H](CC(C)C)NC(=O)[C@H](Cc1ccccc1)NC(=O)[C@H](CO)NC(=O)[C@H](Cc1ccc(O)cc1)NC(=O)[C@H](CC(=O)O)NC(=O)[C@H](CO)NC(=O)[C@@H](NC(=O)[C@H](Cc1ccccc1)NC(=O)[C@@H](NC(=O)CNC(=O)[C@H](CCC(=O)O)NC(=O)C(C)(C)NC(=O)[C@@H](N)Cc1c[nH]cn1)[C@@H](C)O)[C@@H](C)O)C(=O)N[C@@H](CCC(N)=O)C(=O)N[C@@H](Cc1c[nH]c2ccccc12)C(=O)N[C@@H](CC(C)C)C(=O)N[C@H](C(N)=O)C(C)C

How the values were obtained:
[1] = biological target: human GLP-1 receptor (hGLP1R) (human, UniProt P43220 24-463); assay: cell-based or functional assay
[2] = biological target: human secretin receptor (hSCTR) (human, UniProt P47872 23-440); assay: cell-based or functional assay
human secretin receptor (hSCTR), sequence (P47872 23-440): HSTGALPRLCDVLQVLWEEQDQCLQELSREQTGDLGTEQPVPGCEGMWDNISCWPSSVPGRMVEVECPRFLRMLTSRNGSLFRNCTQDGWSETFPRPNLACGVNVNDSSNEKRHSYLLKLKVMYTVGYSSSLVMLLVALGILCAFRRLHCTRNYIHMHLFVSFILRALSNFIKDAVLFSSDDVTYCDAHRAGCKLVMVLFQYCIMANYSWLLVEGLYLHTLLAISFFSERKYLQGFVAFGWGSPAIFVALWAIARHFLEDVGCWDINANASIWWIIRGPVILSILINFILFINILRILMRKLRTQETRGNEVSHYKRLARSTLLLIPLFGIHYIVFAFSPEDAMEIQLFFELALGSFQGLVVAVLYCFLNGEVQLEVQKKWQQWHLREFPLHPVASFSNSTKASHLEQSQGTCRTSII

Row | Binder | pEC50 hGLPR1 [1] | pEC50 hSCTR [2]
1 | B1 | 10.9 -log M | 7.9 -log M
2 | B2 | 10.4 -log M | 7.4 -log M
3 | H[Aib]EGTFTSDVSRLK([AEEA-AEEA-γGlu-C20 diacid])ETAAQQRFLEHLV-NH2 [SEQ ID NO: 21] | 10.9 -log M | 6.7 -log M
4 | H[Aib]EGTFTSDVSRLK([AEEA-AEEA-γGlu-C20 diacid])EEAAEQRFLEHLV-NH2 [SEQ ID NO: 22] | 10.7 -log M | 6.4 -log M
5 | H[Aib]EGTFTSDVSRLK([AEEA-AEEA-γGlu-C20 diacid])ETAAAQRFLEHLV-NH2 [SEQ ID NO: 23] | 10.7 -log M | 6.8 -log M
6 | H[Aib]EGTFTSDVSRLK([AEEA-AEEA-γGlu-C20 diacid])EFAAQQRFLEHLV-NH2 [SEQ ID NO: 24] | 10.3 -log M | 6.8 -log M
7 | H[Aib]EGTFTSDVSFLK([AEEA-AEEA-γGlu-C20 diacid])ETAA[Aib]QRFLEHLV-NH2 [SEQ ID NO: 25] | 9 -log M | 5.1 -log M
8 | H[Aib]EGTFTSDVSRLK([AEEA-AEEA-γGlu-C20 diacid])ELAAQQRFLEHLV-NH2 [SEQ ID NO: 3] | 10.8 -log M | 7.1 -log M
9 | H[Aib]EGTFTSDVSRLK([AEEA-AEEA-γGlu-C20 diacid])ETAATQRFLEHLV-NH2 [SEQ ID NO: 26] | 10.9 -log M | 7.2 -log M
10 | H[Aib]EGTFTSDVSFLK([AEEA-AEEA-γGlu-C20 diacid])EFAA[Aib]QRFLEHLV-NH2 [SEQ ID NO: 27] | 10 -log M | 5.5 -log M
11 | H[Aib]EGTFTSDVSVLK([AEEA-AEEA-γGlu-C20 diacid])EEAAAQRFLEHLV-NH2 [SEQ ID NO: 28] | 10.7 -log M | 5.9 -log M
12 | H[Aib]EGTFTSDVSVLK([AEEA-AEEA-γGlu-C20 diacid])EFAAAQRFLEHLV-NH2 [SEQ ID NO: 29] | 10 -log M | 6.1 -log M
13 | H[Aib]EGTFTSDVSYLK([AEEA-AEEA-γGlu-C20 diacid])EEAATQRFLEHLV-NH2 [SEQ ID NO: 30] | 10.9 -log M | 6.6 -log M
14 | H[Aib]EGTFTSDVSELK([AEEA-AEEA-γGlu-C20 diacid])EFAAEQRFLEHLV-NH2 [SEQ ID NO: 31] | 10.4 -log M | 5.2 -log M
15 | H[Aib]EGTFTSDVSTLK([AEEA-AEEA-γGlu-C20 diacid])E[Aib]AA[Aib]QRFLEHLV-NH2 [SEQ ID NO: 32] | 10.6 -log M | 6.2 -log M
16 | H[Aib]EGTFTSDVSVLK([AEEA-AEEA-γGlu-C20 diacid])ELAAQQRFLEHLV-NH2 [SEQ ID NO: 33] | 10.2 -log M | 6.5 -log M
17 | H[Aib]EGTFTSDVSRLK([AEEA-AEEA-γGlu-C20 diacid])ETAAEQRFLEHLV-NH2 [SEQ ID NO: 34] | 10.6 -log M | 6.4 -log M

Row | Binder | pEC50 hGLPR1 [1] | pEC50 hSCTR [2]
18 | H[Aib]EGTFTSDVSVLK([AEEA-AEEA-γGlu-C20 diacid])EEAA[Aib]QRFLEHLV-NH2 [SEQ ID NO: 35] | 10.8 -log M | 6.1 -log M
19 | H[Aib]EGTFTSDVSYLK([AEEA-AEEA-γGlu-C20 diacid])ETAATQRFLEHLV-NH2 [SEQ ID NO: 4] | 11.1 -log M | 7 -log M
20 | H[Aib]EGTFTSDVSELK([AEEA-AEEA-γGlu-C20 diacid])ELAAEQRFLEHLV-NH2 [SEQ ID NO: 36] | 10.5 -log M | 6.5 -log M
21 | H[Aib]EGTFTSDVSFLK([AEEA-AEEA-γGlu-C20 diacid])EEAA[Aib]QRFLEHLV-NH2 [SEQ ID NO: 37] | 10.9 -log M | 5.7 -log M
22 | H[Aib]EGTFTSDVSFLK([AEEA-AEEA-γGlu-C20 diacid])EEAASQRFLEHLV-NH2 [SEQ ID NO: 38] | 10.5 -log M | 6 -log M
23 | H[Aib]EGTFTSDVSTLK([AEEA-AEEA-γGlu-C20 diacid])EEAAQQRFLEHLV-NH2 [SEQ ID NO: 39] | 10.8 -log M | 6.5 -log M
24 | H[Aib]EGTFTSDVSVLK([AEEA-AEEA-γGlu-C20 diacid])E[Aib]AAQQRFLEHLV-NH2 [SEQ ID NO: 40] | 10.7 -log M | 6.4 -log M
25 | H[Aib]EGTFTSDVSVLK([AEEA-AEEA-γGlu-C20 diacid])ETAAQQRFLEHLV-NH2 [SEQ ID NO: 41] | 11.1 -log M | 6.9 -log M
26 | H[Aib]EGTFTSDVSTLK([AEEA-AEEA-γGlu-C20 diacid])ETAAEQRFLEHLV-NH2 [SEQ ID NO: 42] | 10.8 -log M | 5.5 -log M
27 | H[Aib]EGTFTSDVSTLK([AEEA-AEEA-γGlu-C20 diacid])E[Aib]AAAQRFLEHLV-NH2 [SEQ ID NO: 43] | 11 -log M | 6.5 -log M
28 | H[Aib]EGTFTSDVSFLK([AEEA-AEEA-γGlu-C20 diacid])ETAAAQRFLEHLV-NH2 [SEQ ID NO: 44] | 10.5 -log M | 5.4 -log M
29 | H[Aib]EGTFTSDVSELK([AEEA-AEEA-γGlu-C20 diacid])ETAA[Aib]QRFLEHLV-NH2 [SEQ ID NO: 45] | 10.7 -log M | 5.7 -log M
30 | H[Aib]EGTFTSDVSYLK([AEEA-AEEA-γGlu-C20 diacid])EFAA[Aib]QRFLEHLV-NH2 [SEQ ID NO: 46] | 10.3 -log M | 5.4 -log M
31 | H[Aib]EGTFTSDVSYLK([AEEA-AEEA-γGlu-C20 diacid])EEAAQQRFLEHLV-NH2 [SEQ ID NO: 47] | 10.8 -log M | 6.6 -log M
32 | H[Aib]EGTFTSDVSYLK([AEEA-AEEA-γGlu-C20 diacid])E[Aib]AATQRFLEHLV-NH2 [SEQ ID NO: 48] | 10.6 -log M | 6.9 -log M
33 | H[Aib]EGTFTSDVSVLK([AEEA-AEEA-γGlu-C20 diacid])E[Aib]AATQRFLEHLV-NH2 [SEQ ID NO: 49] | 10.7 -log M | 6.9 -log M
